{"source": "paper doi:10.1101/830265", "binders": {"B1": {"name": "puroindoline A (natural protein)", "chain": "DVAGGGGAQQCPVETKLNSCRNYLLDRCSTMKDFPVTWRWWKWWKGGCQELLGECCSRLGQMPPQCRCNIIQGSIQGDLGGIFGFQRDRASKVIQEAKNLPPRCNQGPPCNIPGTIGYYW"}}, "key": {"[1]": {"target": "total gliadin fraction (Triticum aestivum)", "experiment": "turbidimetry"}, "[2]": {"target": "total gliadin fraction (Triticum aestivum)", "experiment": "turbidimetry", "remark": "listed apart in the source"}, "[3]": {"target": "total gliadin fraction (Triticum aestivum)", "experiment": "turbidimetry", "remark": "listed apart in the source"}, "[4]": {"target": "α-gliadin (Triticum aestivum)", "experiment": "SPR"}, "[5]": {"target": "γ-gliadin (Triticum aestivum) (UniProt P08453)", "sequence (P08453 20-327)": "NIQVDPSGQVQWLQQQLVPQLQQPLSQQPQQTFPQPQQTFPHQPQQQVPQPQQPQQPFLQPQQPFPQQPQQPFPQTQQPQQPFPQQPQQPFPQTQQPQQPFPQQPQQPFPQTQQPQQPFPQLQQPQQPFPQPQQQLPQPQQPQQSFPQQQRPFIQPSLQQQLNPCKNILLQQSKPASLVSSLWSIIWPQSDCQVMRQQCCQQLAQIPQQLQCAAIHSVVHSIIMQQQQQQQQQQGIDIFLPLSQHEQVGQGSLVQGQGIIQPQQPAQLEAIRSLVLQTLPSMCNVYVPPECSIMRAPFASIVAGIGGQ", "experiment": "SPR"}}, "note": "Where two headings read alike, the source gives them in different places.", "data": [{"binder": "B1", "values": [{"measurement": "Kd", "setting": "[1]", "result": 400, "unit": "nM"}, {"measurement": "Kd", "setting": "[2]", "result": 600, "unit": "nM"}, {"measurement": "Kd", "setting": "[3]", "result": 1000, "unit": "nM"}, {"measurement": "Kd", "setting": "[4]", "result": 4450, "unit": "nM"}, {"measurement": "response at equilibrium at 2.5 µM PINA", "setting": "[4]", "result": 160, "unit": "RU"}, {"measurement": "Kd", "setting": "[5]", "result": 630, "unit": "nM"}, {"measurement": "response at equilibrium at 2.5 µM PINA", "setting": "[5]", "result": 34, "unit": "RU"}]}]}
